The text below walks through data of paper PMC7949155.

Among the targets are MlghB (C. jejuni); MlghC (C. jejuni); DdahB (C. jejuni); DdahC (C. jejuni).
What all share (test): SEC-MALS; size-exclusion chromatography (Superdex 200) in 10-mM Tris, pH 7.5, 150-mM NaCl with Dawn Heleos II light scattering and Optilab T-rEX dRI detectors
(In general: Size exclusion chromatography separates by hydrodynamic size, large species first.)

Turning to MlghB (enzyme), the stoichiometry N – broadly, the number of molecules, sites or subunits per partner or assembly – with MlghB (C. jejuni) stood at 2.

Regarding MlghC (enzyme), in the assay with MlghC (C. jejuni), the stoichiometry N amounted to 2.

Turning to DdahB (enzyme), the stoichiometry N with DdahB (C. jejuni) is 2.

DdahC (enzyme) registered a stoichiometry N in the assay with DdahC (C. jejuni) of 2.
